Consider eight molecules from patent US20230348603A1.

The target of this test is Mouse VSIG4-His (mouse). Description: ELISA, Fab P.E. 1:5 on coated antigen. Background: ELISA stands for enzyme-linked immunosorbent assay.
Mouse VSIG4-His (mouse), sequence (chain, as listed by the source limits assumed): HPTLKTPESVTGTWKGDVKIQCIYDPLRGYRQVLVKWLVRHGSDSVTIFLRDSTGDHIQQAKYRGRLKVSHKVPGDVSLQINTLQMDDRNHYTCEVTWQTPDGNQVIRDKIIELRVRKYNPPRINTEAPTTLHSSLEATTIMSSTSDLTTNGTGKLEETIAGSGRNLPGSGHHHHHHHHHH

B1: 16E10 mouse Fab (periplasmic extract) (Fab, V domains shown)
VH: QVQLQQSGAELVRPGTSVKISCKASGYTFTNYWLGWVKQRPGHGLEWIGDIYPGGGYTNYNEKFKGKATLTADTSSSTAYMQLSSLTSEDSAVYFCAKFYYYGSSYYFDSWGQGTTLTVSS
VL: DIVLTQSPSSLSVSAGEKVTLSCKSSQSLLNSGNQENYLAWYQQKPGQPPKLLIYGASTRESGVPDRFTGSGSGTDFTLTISSVQAEDLAVYYCQNDHSYPLTFGAGTKLELK
Turning to B1, the ELISA OD450 is 0.058 OD450.

B2: 14D12 mouse Fab (periplasmic extract) (Fab, V domains shown)
VH: QIQLVQSGPELKKPGETVKISCKASGYTFTNYGMNWVKQTPGKGLKWMGLINTYTGEPTYADDFKGRFAFSLETSASTAYLQINNLKNEDMATYFCARERIYGYLHYFDYWGQGTTLTVSS
VL: DVVMTQTPASLAVSLGQRATISCKASQSVDYDGDSYMNWYQQKPGQPPKLLIYAASNLESGIPARFSGSGSGTDFTLNIHPVEEEDAATYYCQQSNEDPRTFGGGTKLEIK
B2 returned an ELISA OD450 of 0.054 OD450.

B3: 15C03 mouse Fab (periplasmic extract) (Fab, V domains shown)
VH: EVKLLESGPGLVKPSQSLSLTCTVTGYSITSDYAWNWIRQFPGNKLEWMGYISYSGSTRYNPSLKSRISITRDTSNNQFFLQLNSVTTEDTATYYCARSGYAAMDYWGQGTSVTVSS
VL: ENVLTQSPAIMSASPGEKVTMTCRASSSVSSSYLHWYQQKSGASPKLWIYSTSNLASGVPARFSGSGSGTSYSLTISSVEAEDAATYYCQQYSGYPLTFGSGTKLEIK
B3 showed an ELISA OD450 of 0.065 OD450.

B4: 13H11 mouse Fab (periplasmic extract) (Fab, V domains shown)
VH: QIQLVQSGPELKKPGETVKISCKASGYTFENFGMNWVKQAPGKGLKWMGWINTYTGEATYADDFKGRFAFSLETSASTAYLQINNLKNEDTATYFCARDGGFRHFDVWGAGTTVTVSS
VL: ETTVTQSPASLSVATGEKVTIRCITSTDIDDDMNWYQQKPGEPPKLLISEGNTLRPGVPSRFSSSGYGTDFVFTIENMLSEDVADYYCLQSDNLPLTFGAGTKLELK
Molecule B4 gave an ELISA OD450 of 0.057 OD450.

B5: 16E03 mouse Fab (periplasmic extract) (Fab, V domains shown)
VH: QVQLQQSGAELARPGASVKMSCKASGYTFTSYTMHWIKQRPGQGLEWIGYINPSSGHTYYNQKFKDKATLTPDKSSSTAYMQLTSLTSEDSAVYYCARRIPTAYAMDYWGQGTSVTVSS
VL: EIQMTQSHKFMSTSVGDRVSITCKASQDVGTAVAWYQQKPGQSPKLLIYWASTRHTGVPDRFTGSGSGTDFTLTISNVQSEDLADYFCQQYSSYPLTFGAGTKLELK
With B5, the ELISA OD450 came out at 0.057 OD450.

B6: 12A12 mouse Fab (periplasmic extract) (Fab, V domains shown)
VH: QVQMKQSGAELAKPGASVKMSCKASGYTFTNYWMHWVKQRPGQGLEWIGYINPSTGYTDYNQNFKDRATLTADKSSSTAYMQLSSLTSEDSAVYYCIRGSDYYGRDYWGQGTTLTVSS
VL: DIQMTQTTSSLSASLGDRVTISCRASQDISNYLNWYQQKPDGTLKLLIYYTSRLHSGVPSRFSGSGSGTDYSLTISNLEQEDIATYFCRQGNTLPWTFGGGTKLEIK
The molecule B6 displayed an ELISA OD450 of 0.063 OD450.

B7: 14C05 mouse Fab (periplasmic extract) (Fab, V domains shown)
VH: EVMLVESGPELKKPGETVKISCKASGYTFTNYGMNWVKQAPGKGLKWMGSINTYTGEATYADDFKGRFAFSLETSANTAYLQIDNLKNEDTATYFCARGDYYGRGTWFAYWGQGTLVTVSA
VL: ETTVTQSHKFMSTSVGDRVSITCKASQDVSTAVAWYQQKPGQSPKLLIYSASYRYPGVPDRFTGSGSGTDFTFTISSVQAEDLAVYYCQQDYSSPWTFGGGTKLEIK
B7: the ELISA OD450 is 0.059 OD450.

B8: 12A08 mouse Fab (periplasmic extract) (Fab, V domains shown)
VH: EVMLVESGGGLVKPGGSLKLSCAASGFTFDDFYMYWVRQTPEKRLEWVASISDGGTYTYYPDSVKGRFTISRDNAKNTLYLQLSSLKSEDTAMYYCARGVDKYYYAMDYWGQGTSVTVSS
VL: QILLTQSPAIMSASPGEKVTITCSASSSVSYMHWFQQKPGTSPKLWIYSTSNLASGVPARFSGSGSGTSYSLTISRMEAEDAATYYCQQRSSYPLTFGAGTKLELK
In the case of B8, the ELISA OD450 was 0.057 OD450.
